From patent publication US20140274782A1, “AFFINITY REAGENTS AND METHODS FOR DETECTION, PURIFICATION, AND PROTEOMIC ANALYSIS OF METHYLATED PROTEINS” (The Board of Trustees of the Leland Stanford Junior …, priority 2013, published 2014)

Legend:
Experiment in all cases: ProtoArray, G9a array SNR minus GST array SNR
[1] = biological target: RPL14, G9a-methylated (human) (UniProt P50914)
[2] = biological target: FKBP14, G9a-methylated (human) (UniProt Q9NWM8)
[3] = biological target: YPEL5, G9a-methylated (human) (UniProt P62699)
[4] = biological target: CD79A, G9a-methylated (human) (UniProt P11912)
[5] = biological target: PSMA8, G9a-methylated (human) (UniProt Q8TAA3)
[6] = biological target: LARP6, G9a-methylated (human) (UniProt Q9BRS8)
[7] = biological target: FTL, G9a-methylated (human) (UniProt P02792)
[8] = biological target: SMAP1, G9a-methylated (human) (UniProt Q8IYB5)
[9] = biological target: DGKA, G9a-methylated (human) (UniProt P23743)
[10] = biological target: GAL, G9a-methylated (human) (UniProt P22466)
[11] = biological target: LPAL2, G9a-methylated (human) (UniProt Q16609)
[12] = biological target: GGPS1, G9a-methylated (human) (UniProt O95749)
[13] = biological target: CCL24, G9a-methylated (human) (UniProt O00175)
[14] = biological target: SMYD5, G9a-methylated (human) (UniProt Q6GMV2)
[15] = biological target: MAGEH1, G9a-methylated (human) (UniProt Q9H213)
[16] = biological target: C1QTNF6, G9a-methylated (human) (UniProt Q9BXI9)
[17] = biological target: MOBKL3, G9a-methylated (human) (UniProt Q9Y3A3)
[18] = biological target: LYRM7, G9a-methylated (human) (UniProt Q5U5X0)
[19] = biological target: MRPL21, G9a-methylated (human) (UniProt Q7Z2W9)
[20] = biological target: CDC2, G9a-methylated (human) (UniProt P06493)
[21] = biological target: SAR1B, G9a-methylated (human) (UniProt Q9Y6B6)
[22] = biological target: GPX1, G9a-methylated (human) (UniProt P07203)
[23] = biological target: LRRC20, G9a-methylated (human) (UniProt Q8TCA0)
[24] = biological target: HIC2, G9a-methylated (human) (UniProt Q96JB3)
[25] = biological target: SNFT, G9a-methylated (human) (UniProt Q9NR55)
[26] = biological target: SCGB2A2, G9a-methylated (human) (UniProt Q13296)
[27] = biological target: CUTC, G9a-methylated (human) (UniProt Q9NTM9)
[28] = biological target: CRYZL1, G9a-methylated (human) (UniProt O95825)
[29] = biological target: RHBDD1, G9a-methylated (human) (UniProt Q8TEB9)
[30] = biological target: PPARG, G9a-methylated (human) (UniProt P37231)
[31] = biological target: SCGB1A1, G9a-methylated (human) (UniProt P11684)
[32] = biological target: Magmas, G9a-methylated (human) (UniProt Q9Y3D7)
[33] = biological target: CDK10, G9a-methylated (human) (UniProt Q15131)
[34] = biological target: PTCD2, G9a-methylated (human) (UniProt Q8WV60)
[35] = biological target: DYNC2LI1, G9a-methylated (human) (UniProt Q8TCX1)
[36] = biological target: TMEM32, G9a-methylated (human) (UniProt Q8N4V1)
[37] = biological target: CTXN1, G9a-methylated (human) (UniProt P60606)
[38] = biological target: GFOD1, G9a-methylated (human) (UniProt Q9NXC2)
[39] = biological target: GYPC, G9a-methylated (human) (UniProt P04921)
[40] = biological target: LTC4S, G9a-methylated (human) (UniProt Q16873)
Chain of LTC4S, G9a-methylated (human) (Q16873 whole entry): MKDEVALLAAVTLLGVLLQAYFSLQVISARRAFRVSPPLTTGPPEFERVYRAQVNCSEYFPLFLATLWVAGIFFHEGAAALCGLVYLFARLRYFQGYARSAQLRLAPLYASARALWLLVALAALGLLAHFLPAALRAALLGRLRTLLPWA

Chain of FTL, G9a-methylated (human) (P02792 whole entry): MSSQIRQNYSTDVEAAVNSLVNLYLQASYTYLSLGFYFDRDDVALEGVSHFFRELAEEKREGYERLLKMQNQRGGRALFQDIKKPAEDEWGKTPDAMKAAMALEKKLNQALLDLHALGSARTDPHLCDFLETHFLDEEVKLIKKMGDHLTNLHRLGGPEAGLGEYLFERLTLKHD
Chain of LYRM7, G9a-methylated (human) (Q5U5X0 whole entry): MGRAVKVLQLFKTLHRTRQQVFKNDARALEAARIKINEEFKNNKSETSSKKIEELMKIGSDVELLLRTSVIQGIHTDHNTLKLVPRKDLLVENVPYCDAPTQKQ
Chain of CDC2, G9a-methylated (human) (P06493 whole entry): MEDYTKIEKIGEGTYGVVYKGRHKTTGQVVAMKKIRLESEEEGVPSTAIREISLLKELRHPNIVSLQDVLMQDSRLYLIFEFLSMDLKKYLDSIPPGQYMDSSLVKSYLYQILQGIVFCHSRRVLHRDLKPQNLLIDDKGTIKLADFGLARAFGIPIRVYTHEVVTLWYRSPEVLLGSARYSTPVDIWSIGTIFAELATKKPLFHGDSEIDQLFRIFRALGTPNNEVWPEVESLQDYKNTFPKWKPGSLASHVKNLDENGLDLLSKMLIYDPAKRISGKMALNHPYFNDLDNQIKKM
Chain of GFOD1, G9a-methylated (human) (Q9NXC2 22-390 limits assumed): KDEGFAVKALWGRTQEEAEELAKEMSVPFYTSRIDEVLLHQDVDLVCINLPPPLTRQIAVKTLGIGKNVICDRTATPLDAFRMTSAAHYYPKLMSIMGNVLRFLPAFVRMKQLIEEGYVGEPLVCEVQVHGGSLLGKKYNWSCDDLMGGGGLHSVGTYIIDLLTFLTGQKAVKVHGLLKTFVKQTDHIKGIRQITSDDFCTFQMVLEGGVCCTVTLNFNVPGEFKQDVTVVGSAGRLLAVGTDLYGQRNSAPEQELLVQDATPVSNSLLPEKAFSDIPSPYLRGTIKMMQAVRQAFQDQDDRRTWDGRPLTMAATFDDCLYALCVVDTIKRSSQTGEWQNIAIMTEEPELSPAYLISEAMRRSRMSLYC
Chain of C1QTNF6, G9a-methylated (human) (Q9BXI9 47-278 limits assumed): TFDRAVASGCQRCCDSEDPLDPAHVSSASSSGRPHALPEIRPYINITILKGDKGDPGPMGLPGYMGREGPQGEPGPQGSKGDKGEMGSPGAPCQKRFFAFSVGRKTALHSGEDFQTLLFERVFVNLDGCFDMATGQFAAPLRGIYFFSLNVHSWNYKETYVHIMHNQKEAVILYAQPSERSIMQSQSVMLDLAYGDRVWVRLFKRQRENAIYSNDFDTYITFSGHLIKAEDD
Chain of SNFT, G9a-methylated (human) (Q9NR55 whole entry): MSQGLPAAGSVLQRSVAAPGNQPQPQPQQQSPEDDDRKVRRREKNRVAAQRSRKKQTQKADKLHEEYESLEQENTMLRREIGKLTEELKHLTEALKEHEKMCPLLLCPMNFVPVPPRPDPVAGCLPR
Chain of PTCD2, G9a-methylated (human) (Q8WV60 whole entry): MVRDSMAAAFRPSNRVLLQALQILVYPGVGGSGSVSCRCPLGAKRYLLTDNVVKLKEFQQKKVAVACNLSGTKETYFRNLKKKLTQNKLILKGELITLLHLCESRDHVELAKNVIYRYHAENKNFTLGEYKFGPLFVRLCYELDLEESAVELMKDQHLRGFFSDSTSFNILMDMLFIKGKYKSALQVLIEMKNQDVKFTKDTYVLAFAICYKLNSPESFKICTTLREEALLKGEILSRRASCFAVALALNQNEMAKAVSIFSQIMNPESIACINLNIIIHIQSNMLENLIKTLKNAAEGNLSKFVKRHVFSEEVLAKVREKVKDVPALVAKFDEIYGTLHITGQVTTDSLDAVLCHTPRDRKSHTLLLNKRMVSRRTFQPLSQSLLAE
Chain of GGPS1, G9a-methylated (human) (O95749 whole entry): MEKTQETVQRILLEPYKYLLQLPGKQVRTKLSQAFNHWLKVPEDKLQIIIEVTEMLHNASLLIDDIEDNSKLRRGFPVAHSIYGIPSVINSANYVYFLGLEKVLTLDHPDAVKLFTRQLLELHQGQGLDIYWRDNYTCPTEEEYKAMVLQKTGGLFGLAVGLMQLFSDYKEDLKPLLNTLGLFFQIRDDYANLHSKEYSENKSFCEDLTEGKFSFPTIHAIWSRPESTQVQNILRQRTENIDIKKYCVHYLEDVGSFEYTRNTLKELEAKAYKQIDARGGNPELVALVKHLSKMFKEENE
Chain of CD79A, G9a-methylated (human) (P11912 33-226 limits assumed): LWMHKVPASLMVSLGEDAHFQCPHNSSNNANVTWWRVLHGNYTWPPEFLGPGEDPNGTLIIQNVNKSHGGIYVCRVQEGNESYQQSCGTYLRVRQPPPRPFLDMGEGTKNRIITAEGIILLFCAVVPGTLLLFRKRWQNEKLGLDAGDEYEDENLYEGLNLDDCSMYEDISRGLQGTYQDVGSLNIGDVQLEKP
Chain of CCL24, G9a-methylated (human) (O00175 27-119 limits assumed): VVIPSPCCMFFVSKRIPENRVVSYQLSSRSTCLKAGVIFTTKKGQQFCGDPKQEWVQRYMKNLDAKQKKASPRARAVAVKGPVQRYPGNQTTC
Chain of YPEL5, G9a-methylated (human) (P62699 whole entry): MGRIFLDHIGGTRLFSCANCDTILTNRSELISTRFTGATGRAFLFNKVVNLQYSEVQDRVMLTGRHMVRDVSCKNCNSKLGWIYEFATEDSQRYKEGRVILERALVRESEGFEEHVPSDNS
Chain of CTXN1, G9a-methylated (human) (P60606 whole entry): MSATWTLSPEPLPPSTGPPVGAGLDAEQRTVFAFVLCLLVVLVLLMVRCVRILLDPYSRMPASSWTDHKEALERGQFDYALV
Chain of SCGB1A1, G9a-methylated (human) (P11684 22-91 limits assumed): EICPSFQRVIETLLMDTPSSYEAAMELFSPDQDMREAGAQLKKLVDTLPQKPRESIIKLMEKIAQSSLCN
Chain of GAL, G9a-methylated (human) (P22466 20-123 limits assumed): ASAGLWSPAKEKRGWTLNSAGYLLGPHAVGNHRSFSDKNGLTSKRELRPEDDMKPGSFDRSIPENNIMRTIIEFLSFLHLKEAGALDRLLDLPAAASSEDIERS
Chain of PSMA8, G9a-methylated (human) (Q8TAA3 whole entry): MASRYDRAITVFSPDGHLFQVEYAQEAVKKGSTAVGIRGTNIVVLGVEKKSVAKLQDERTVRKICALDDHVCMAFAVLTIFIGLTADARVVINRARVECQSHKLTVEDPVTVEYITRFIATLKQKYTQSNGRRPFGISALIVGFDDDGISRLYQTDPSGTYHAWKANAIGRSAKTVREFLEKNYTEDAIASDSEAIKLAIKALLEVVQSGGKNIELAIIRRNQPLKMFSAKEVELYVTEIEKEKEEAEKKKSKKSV
Chain of GPX1, G9a-methylated (human) (P07203 whole entry): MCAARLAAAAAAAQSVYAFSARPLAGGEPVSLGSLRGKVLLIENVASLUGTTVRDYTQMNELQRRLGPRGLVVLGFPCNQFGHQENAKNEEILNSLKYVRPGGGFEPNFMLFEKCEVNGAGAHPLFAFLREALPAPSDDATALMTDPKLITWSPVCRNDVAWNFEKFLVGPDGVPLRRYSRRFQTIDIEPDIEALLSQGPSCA
Chain of Magmas, G9a-methylated (human) (Q9Y3D7 whole entry): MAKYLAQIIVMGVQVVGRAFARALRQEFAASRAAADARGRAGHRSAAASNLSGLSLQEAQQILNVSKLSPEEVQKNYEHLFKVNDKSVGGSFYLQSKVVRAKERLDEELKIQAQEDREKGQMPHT
Chain of SCGB2A2, G9a-methylated (human) (Q13296 19-93 limits assumed): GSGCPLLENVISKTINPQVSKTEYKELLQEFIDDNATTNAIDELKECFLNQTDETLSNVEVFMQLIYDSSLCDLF
Chain of LRRC20, G9a-methylated (human) (Q8TCA0 whole entry): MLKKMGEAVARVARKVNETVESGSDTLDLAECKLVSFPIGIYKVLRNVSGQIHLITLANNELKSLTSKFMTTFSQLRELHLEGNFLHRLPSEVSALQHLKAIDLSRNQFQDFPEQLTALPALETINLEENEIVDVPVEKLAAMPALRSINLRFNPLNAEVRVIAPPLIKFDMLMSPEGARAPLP
Chain of RHBDD1, G9a-methylated (human) (Q8TEB9 whole entry): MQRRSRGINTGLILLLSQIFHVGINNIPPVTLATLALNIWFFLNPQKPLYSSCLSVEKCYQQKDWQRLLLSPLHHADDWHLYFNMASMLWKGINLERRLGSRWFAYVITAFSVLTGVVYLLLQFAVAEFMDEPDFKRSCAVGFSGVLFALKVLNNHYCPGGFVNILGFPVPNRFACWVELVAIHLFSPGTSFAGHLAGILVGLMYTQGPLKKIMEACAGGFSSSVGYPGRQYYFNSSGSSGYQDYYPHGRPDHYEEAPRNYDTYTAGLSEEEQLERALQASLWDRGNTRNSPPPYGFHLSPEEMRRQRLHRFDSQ
Chain of TMEM32, G9a-methylated (human) (Q8N4V1 whole entry): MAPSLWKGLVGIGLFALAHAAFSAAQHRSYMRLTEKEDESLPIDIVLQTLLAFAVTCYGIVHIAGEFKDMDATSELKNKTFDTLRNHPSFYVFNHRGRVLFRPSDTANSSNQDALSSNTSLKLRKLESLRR
Chain of SMYD5, G9a-methylated (human) (Q6GMV2 whole entry): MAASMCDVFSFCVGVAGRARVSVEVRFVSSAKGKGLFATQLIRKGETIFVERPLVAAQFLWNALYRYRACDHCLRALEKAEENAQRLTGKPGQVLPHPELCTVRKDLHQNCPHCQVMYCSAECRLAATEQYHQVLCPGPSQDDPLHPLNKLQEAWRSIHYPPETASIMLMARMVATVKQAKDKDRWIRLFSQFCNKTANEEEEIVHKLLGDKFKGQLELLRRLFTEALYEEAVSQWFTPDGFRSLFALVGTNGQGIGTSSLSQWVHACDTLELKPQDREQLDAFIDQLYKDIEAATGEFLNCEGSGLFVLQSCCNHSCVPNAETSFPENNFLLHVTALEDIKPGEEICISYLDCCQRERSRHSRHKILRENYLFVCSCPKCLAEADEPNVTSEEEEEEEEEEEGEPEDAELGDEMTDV
Chain of GYPC, G9a-methylated (human) (P04921 other isoform, or with tags, fused parts or gaps limits assumed): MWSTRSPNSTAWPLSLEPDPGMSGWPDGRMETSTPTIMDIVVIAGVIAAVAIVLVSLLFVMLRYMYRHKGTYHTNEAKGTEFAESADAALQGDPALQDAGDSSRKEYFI

What does the source list for 3× Flag-3×MBT (designed binder)?
G9a-GST [1]: 17.7; G9a-GST [2]: 13.7; G9a-GST [3]: 14.2; G9a-GST [4]: 14.5; G9a-GST [5]: 13.9; G9a-GST [6]: 16.6; G9a-GST [7]: 33.5; G9a-GST [8]: 20.2; G9a-GST [9]: 14.3; G9a-GST [10]: 13.2; G9a-GST [11]: 33; G9a-GST [12]: 12.8; G9a-GST [13]: 34.4; G9a-GST [14]: 19.5; G9a-GST [15]: 42.9; G9a-GST [16]: 16.8; G9a-GST [17]: 14; G9a-GST [18]: 16.9; G9a-GST [19]: 21.9; G9a-GST [20]: 26; G9a-GST [21]: 19.3; G9a-GST [22]: 14.5; G9a-GST [23]: 30.9; G9a-GST [24]: 16.1; G9a-GST [25]: 17.1; G9a-GST [26]: 13.8; G9a-GST [27]: 12.9; G9a-GST [28]: 12.6; G9a-GST [29]: 12.4; G9a-GST [30]: 13.3; G9a-GST [31]: 18.4; G9a-GST [32]: 15.1; G9a-GST [33]: 13.2; G9a-GST [34]: 18.7; G9a-GST [35]: 12.4; G9a-GST [36]: 12.1; G9a-GST [37]: 18.7; G9a-GST [38]: 16; G9a-GST [39]: 13.3; G9a-GST [40]: 12.9
